# Reference: patent US20240141039A1 (AGENUS, published 2024)
# T1: wild type full-length cynomolgus monkey CD96 isoform 2 expressed on CHO cells (cynomolgus monkey, UniProt A0A2K5TWV6 22-569)
# T1 construct: whole, on cells; also called cynomolgus CD96-CHO cells; cynomolgus CD96-CHO (isoform 2)
# T1 sequence: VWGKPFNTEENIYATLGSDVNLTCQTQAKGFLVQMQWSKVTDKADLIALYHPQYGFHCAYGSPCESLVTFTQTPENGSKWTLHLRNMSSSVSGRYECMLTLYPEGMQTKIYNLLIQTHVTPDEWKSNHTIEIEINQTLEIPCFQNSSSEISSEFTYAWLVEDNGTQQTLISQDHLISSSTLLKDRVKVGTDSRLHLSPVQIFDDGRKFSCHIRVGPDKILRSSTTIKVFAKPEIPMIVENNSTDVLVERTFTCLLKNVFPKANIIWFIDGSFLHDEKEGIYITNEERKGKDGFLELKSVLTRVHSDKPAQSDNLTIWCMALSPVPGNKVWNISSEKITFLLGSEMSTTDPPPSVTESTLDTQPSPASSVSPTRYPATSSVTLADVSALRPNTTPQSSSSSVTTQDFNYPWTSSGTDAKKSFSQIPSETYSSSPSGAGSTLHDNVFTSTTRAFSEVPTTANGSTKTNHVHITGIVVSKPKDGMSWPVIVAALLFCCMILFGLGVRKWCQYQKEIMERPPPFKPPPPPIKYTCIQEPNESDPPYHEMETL
# T2: full-length ECD of human TIGIT (His-tagged) (human)
# T2 construct: also called His-tagged human TIGIT; human TIGIT extracellular domain
# T2 chain: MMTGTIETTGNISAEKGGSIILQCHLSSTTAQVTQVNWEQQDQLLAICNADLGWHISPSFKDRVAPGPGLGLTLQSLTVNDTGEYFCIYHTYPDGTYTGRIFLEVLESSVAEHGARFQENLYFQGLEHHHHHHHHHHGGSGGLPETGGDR
# T3: wild type full-length human TIGIT expressed on cells (human, UniProt Q495A1 22-244)
# T3 construct: whole, on cells; also called human TIGIT-CHO; human TIGIT CHO cells
# T3 sequence (looked up): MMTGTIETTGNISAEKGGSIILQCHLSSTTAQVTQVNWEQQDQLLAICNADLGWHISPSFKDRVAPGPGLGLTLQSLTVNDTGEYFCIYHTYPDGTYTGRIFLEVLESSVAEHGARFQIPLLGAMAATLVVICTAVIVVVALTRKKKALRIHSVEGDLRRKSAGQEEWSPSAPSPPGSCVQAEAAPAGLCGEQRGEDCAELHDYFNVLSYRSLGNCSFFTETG
# Key:
# [1] = molecular target: T1, wild type full-length cynomolgus monkey …; assay: flow cytometry, cynomolgus CD96 (isoform 2) CHO cells, 1 experiment
# [2] = molecular target: T2, full-length ECD of human TIGIT …; assay: SPR Biacore T200, Protein A capture, 1:1 model, experiment #1
# Experimental: Briefly, surface plasmon resonance experiments were performed using a Biacore T200 instrument, and the association rate (kₐ), dissociation rate (kd), and dissociation constant (KD) were calculated from each experiment using a 1:1 binding model with Biacore T200 Evaluation Software.
# Multispecific molecules were captured using a 30-sec injection at a flow rate of 10 μl/min to reach about 1000 resonance units (RUs). […] The sensor chip was regenerated between cycles with two 30-sec injections of 10 mM glycine, pH 1.5. Sensorgrams were evaluated and fit to a simple Langmuir 1:1 interaction model using the global data analysis option of BIAevaluation 3.0 software. Data quality was verified by visually inspecting deviations and curve fitting, and by evaluating the parameters of Rₘₐₓ, Chi2, and Tc.
# [3] = molecular target: T4, full-length human FcγRIIIa variant V/V expressed on CHO cells (human, UniProt P08637 17-254); assay: flow cytometry, human FcγRIIIa (V/V) CHO cells, representative experiment
# T4 construct: whole, on cells; also called human FcγRIIIa-CHO (variant V/V); human FcγRIIIa (V/V) CHO cells
# Experimental: (§1) For the antibody binding assay, a frozen aliquot of human FcγRIIIa-CHO cells (variant V/V or variant F/F) was thawed at 37° C. and then transferred to a tube containing DPBS supplemented with 0.5% Bovine Serum Albumin and 0.05% Sodium Azide (FACS Buffer). Cells were centrifuged at 300 g for five minutes. The supernatant was discarded, and cells resuspended in FACS buffer were seeded in a 96-well U-bottom tissue culture plate at a density of 2×10⁵ cells per well in 50 μL. In a separate microplate, a 2× concentrated intermediate stock of each antibody was prepared. Antibodies were serially diluted 1-to-4 in FACS buffer. A total of 11 working dilutions ranging from 60 μg/mL to 0.000057 μg/mL were prepared. Fifty microlitres of each dilution were then transferred to the microplate containing human FcγRIIIa-CHO (variant V/V or variant F/F) cells. The cells were then incubated for 45 minutes at 4° C. […] After a 30-minute incubation on ice, the cells were washed twice with cold FACS Buffer, and the cells were analyzed by flow cytometry (BD LSR Fortessa Flow Cytometer). The data were analyzed using the FlowJo software by sequentially gating the FSC-A vs. SSC-A, and SSC-H vs. SSC-A. Mean fluorescence intensity (MFI) values for PE were calculated, and the data were plotted by GraphPad Prism software.
# [4] = molecular target: T4, full-length human FcγRIIIa variant V/V …; assay: flow cytometry, human FcγRIIIa (V/V) CHO cells, 2 experiments
# Experimental: as §1
# [5] = molecular target: T3, wild type full-length human TIGIT …; assay: flow cytometry, blocking of CD155-Fc-PE binding to human TIGIT CHO cells, geomean of 3 experiments
# Experimental: A 4× concentrated intermediate stock of each antibody was prepared in a microplate. Antibodies were serially diluted 1-to-4 in FACS buffer. […] Lastly, 25 μL of human TIGIT-CHO cells, prepared as described above, were added to each well. After a 30-minute incubation on ice, the cells were washed twice with cold FACS Buffer, and the cells were analyzed by flow cytometry (BD LSR Fortessa Flow Cytometer). The data were analyzed using the FlowJo software by sequentially gating on the FSC-A vs. SSC-A and SSC-H vs. SSC-A. Mean fluorescence intensity (MFI) values for PE were calculated, and the data were plotted by GraphPad Prism software and analyzed as described above.
# T4 sequence (P08637 other isoform, or with tags, fused parts or gaps mutant limits assumed): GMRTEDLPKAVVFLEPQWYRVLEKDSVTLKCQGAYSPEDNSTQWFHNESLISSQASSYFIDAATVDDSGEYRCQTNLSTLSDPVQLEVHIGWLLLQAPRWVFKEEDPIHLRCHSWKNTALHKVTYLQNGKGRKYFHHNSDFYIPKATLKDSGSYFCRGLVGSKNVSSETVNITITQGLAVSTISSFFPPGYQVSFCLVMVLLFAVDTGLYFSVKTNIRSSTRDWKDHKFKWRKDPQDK
binder,measurement,setting,value
"anti-TIGIT×CD96 multispecific molecule BA123 (bispecific antibody, human IgG1, kappa, lambda, copies: 1 + 1 + 1 + 1) heavy 1: QVQLVQSGAEVKKPGASVKVSCKASGYTFTSYGISWVRQAPGQGLEWMGWISAYNANTNYAQKLQGRVTMTTDTSTSTAYMELRSLRSDDTAVYYCARSAGVLGGMDVWGRGTLVTVSSASTKGPSVFPLAPSSKSTSGGTAALGCLVKDYFPEPVTVSWNSGALTSGVHTFPAVLQSSGLYSLSSVVTVPSSSLGTQTYICNVNHKPSNTKVDKRVEPKSCDKTHTCPPCPAPELLGGPDVFLFPPKPKDTLMISRTPEVTCVVVDVSHEDPEVKFNWYVDGVEVHNAKTKPREEQYNSTYRVVSVLTVLHQDWLNGKEYKCKVSNKALPAPIEKTISKAKGQPREPQVYTLPPSREEMTKNQVSLSCAVKGFYPSDIAVEWESNGQPENNYKTTPPVLDSDGSFFLVSKLTVDKSRWQQGNVFSCSVMHEALHNHYTQKSLSLSPG light 1: not shown heavy 2: EVQLVQSGAEVKKPGSSVKVSCKASGYTFASYGISWVRQAPGQGLEWMGGITPFFNRVDVAEKFQGRVTITADKSTSTAYIELSSLRSEDTAVYYCARDLRRGGVGDAFDIWGRGTLVTVSSASTKGPSVFPLAPSSKSTSGGTAALGCLVKDYFPEPVTVSWNSGALTSGVHTFPAVLQSSGLYSLSSVVTVPSSSLGTQTYICNVNHKPSNTKVDKRVEPKSCDKTHTCPPCPAPELLGGPDVFLFPPKPKDTLMISRTPEVTCVVVDVSHEDPEVKFNWYVDGVEVHNAKTKPREEQYNSTYRVVSVLTVLHQDWLNGKEYKCKVSNKALPLPEEKTISKAKGQPREPQVYTLPPSREEMTKNQVSLWCLVKGFYPSDIAVEWESNGQPENNYKTTPPVLDSDGSFFLYSKLTVDKSRWQQGNVFSCSVMHEALHNHYTQKSLSLSPG light 2: QSALTQPRSVSGSPGQSVTISCTGTSPDVGSHAYRSWYQQHPGKAPKLMIYEVSYRPSGVSNRFSGSKSGNTASLTISGLQAEDEADYYCSSYPPSSATVFGAGTKLTVLGQPKAAPSVTLFPPSSEELQANKATLVCLISDFYPGAVTVAWKADSSPVKAGVETTTPSKQSNNKYAASSYLSLTPEQWKSHRSYSCQVTHEGSTVEKTVAPTEC",EC50,[1],1.04 µg/mL
"anti-TIGIT×CD96 multispecific molecule BA127 (bispecific antibody, human IgG1, kappa, lambda, Anti-CD96 arm = BA139, anti-TIGIT arm = BA150; copies: 1 + 1 + 1 + 1) heavy 1: QVQLVQSGAEVKKPGASVKVSCKASGYTFTTYALHWVRQAPGQRLEWMGWINTGSGDTKYSQKFQGRVTITRDTSASTAYMELSSLRSEDTAVYYCARSLGVYYGMDVWGQGTLVTVSSASTKGPSVFPLAPSSKSTSGGTAALGCLVKDYFPEPVTVSWNSGALTSGVHTFPAVLQSSGLYSLSSVVTVPSSSLGTQTYICNVNHKPSNTKVDKRVEPKSCDKTHTCPPCPAPELLGGPDVFLFPPKPKDTLMISRTPEVTCVVVDVSHEDPEVKFNWYVDGVEVHNAKTKPREEQYNSTYRVVSVLTVLHQDWLNGKEYKCKVSNKALPAPIEKTISKAKGQPREPQVYTLPPSREEMTKNQVSLSCAVKGFYPSDIAVEWESNGQPENNYKTTPPVLDSDGSFFLVSKLTVDKSRWQQGNVFSCSVMHEALHNHYTQKSLSLSPG light 1: not shown heavy 2: EVQLVQSGAEVKKPGSSVKVSCKASGYTFASYGISWVRQAPGQGLEWMGGITPFFNRVDVAEKFQGRVTITADKSTSTAYIELSSLRSEDTAVYYCARDLRRGGVGDAFDIWGRGTLVTVSSASTKGPSVFPLAPSSKSTSGGTAALGCLVKDYFPEPVTVSWNSGALTSGVHTFPAVLQSSGLYSLSSVVTVPSSSLGTQTYICNVNHKPSNTKVDKRVEPKSCDKTHTCPPCPAPELLGGPDVFLFPPKPKDTLMISRTPEVTCVVVDVSHEDPEVKFNWYVDGVEVHNAKTKPREEQYNSTYRVVSVLTVLHQDWLNGKEYKCKVSNKALPLPEEKTISKAKGQPREPQVYTLPPSREEMTKNQVSLWCLVKGFYPSDIAVEWESNGQPENNYKTTPPVLDSDGSFFLYSKLTVDKSRWQQGNVFSCSVMHEALHNHYTQKSLSLSPG light 2: QSALTQPRSVSGSPGQSVTISCTGTSPDVGSHAYRSWYQQHPGKAPKLMIYEVSYRPSGVSNRFSGSKSGNTASLTISGLQAEDEADYYCSSYPPSSATVFGAGTKLTVLGQPKAAPSVTLFPPSSEELQANKATLVCLISDFYPGAVTVAWKADSSPVKAGVETTTPSKQSNNKYAASSYLSLTPEQWKSHRSYSCQVTHEGSTVEKTVAPTEC",Kd,[2],0.584 nM
same,koff,[2],0.000356 s⁻¹
same,kon,[2],610000 M⁻¹ s⁻¹
"anti-TIGIT monospecific antibody BA148 (antibody, human IgG1, lambda, IgG1; also called anti-TIGIT IgG1 antibody BA148) heavy: EVQLVQSGAEVKKPGSSVKVSCKASGYTFASYGISWVRQAPGQGLEWMGGITPFFNRVDVAEKFQGRVTITADKSTSTAYIELSSLRSEDTAVYYCARDLRRGGVGDAFDIWGRGTLVTVSSASTKGPSVFPLAPSSKSTSGGTAALGCLVKDYFPEPVTVSWNSGALTSGVHTFPAVLQSSGLYSLSSVVTVPSSSLGTQTYICNVNHKPSNTKVDKRVEPKSCDKTHTCPPCPAPELLGGPDVFLFPPKPKDTLMISRTPEVTCVVVDVSHEDPEVKFNWYVDGVEVHNAKTKPREEQYNSTYRVVSVLTVLHQDWLNGKEYKCKVSNKALPLPEEKTISKAKGQPREPQVYTLPPSREEMTKNQVSLTCLVKGFYPSDIAVEWESNGQPENNYKTTPPVLDSDGSFFLYSKLTVDKSRWQQGNVFSCSVMHEALHNHYTQKSLSLSPGK light: QSALTQPRSVSGSPGQSVTISCTGTSPDVGSHAYRSWYQQHPGKAPKLMIYEVSYRPSGVSNRFSGSKSGNTASLTISGLQAEDEADYYCSSYPPSSATVFGAGTKLTVLGQPKAAPSVTLFPPSSEELQANKATLVCLISDFYPGAVTVAWKADSSPVKAGVETTTPSKQSNNKYAASSYLSLTPEQWKSHRSYSCQVTHEGSTVEKTVAPTEC",Area under the curve (AUC),[3],50100
same,EC50,[4],0.0455 µg/mL
same,IC50,[5],0.0084 µg/mL
